According to the supplement of paper PMC9112550, “Optimization of the antimicrobial peptide Bac7 by deep mutational scanning” (BMC Biology, 2022):

These sequences were tested on Escherichia coli TOP10 (assay: shrunken log2 fold change of peptide-encoding DNA abundance (4.5 h post-induction vs induction); higher = less antimicrobial activity (less host growth inhibition)). Conditions: time post-induction: 4.5 h; library: site-saturation at positions 5, 18, 19, 20.
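Further: peptides expressed intracellularly from a pBAD plasmid library in pooled LB shake-flask culture, induced with 0.3% L-arabinose, DNA abundance read by NGS, three biological replicates, DESeq2 with apeglm shrinkage.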

Row | Sequence | shrunken log2 fold change
1 | RRIRVRPPRLPRPRPRPLSKPRP | -0.303
2 | RRIRGRPPRLPRPRPRPANEPRP | -0.0603
3 | RRIRQRPPRLPRPRPRPILSPRP | 0.0165
4 | RRIRIRPPRLPRPRPRPKTGPRP | -0.388
5 | RRIRERPPRLPRPRPRPFWTPRP | -0.24
6 | RRIRERPPRLPRPRPRPSNMPRP | -0.683
7 | RRIRTRPPRLPRPRPRPFHKPRP | 0.0244
8 | RRIRQRPPRLPRPRPRPQYMPRP | -0.587
9 | RRIRDRPPRLPRPRPRPNRLPRP | 0.0873
10 | RRIRLRPPRLPRPRPRPPEKPRP | 0.0964
11 | RRIRVRPPRLPRPRPRPPWKPRP | -0.0783
12 | RRIRRRPPRLPRPRPRPWGRPRP | 0.101
13 | RRIRTRPPRLPRPRPRPGNVPRP | 0.0939
14 | RRIRERPPRLPRPRPRPEHTPRP | -0.154
15 | RRIRYRPPRLPRPRPRPDNCPRP | -0.0299
16 | RRIRDRPPRLPRPRPRPMSEPRP | -0.00582
17 | RRIRMRPPRLPRPRPRPCMVPRP | -0.417
18 | RRIRKRPPRLPRPRPRPEPIPRP | -0.0204
19 | RRIRQRPPRLPRPRPRPYANPRP | -0.264
20 | RRIRRRPPRLPRPRPRPLQGPRP | 0.0475
21 | RRIRKRPPRLPRPRPRPCRRPRP | 0.112
22 | RRIRWRPPRLPRPRPRPIYMPRP | -0.118
23 | RRIRVRPPRLPRPRPRPEHAPRP | 0.0467
24 | RRIRWRPPRLPRPRPRPQWRPRP | -0.0345
25 | RRIRHRPPRLPRPRPRPFGGPRP | -0.0398

Row | Sequence | shrunken log2 fold change
26 | RRIRLRPPRLPRPRPRPDDMPRP | 0.0411
27 | RRIRRRPPRLPRPRPRPEWDPRP | 0.426
28 | RRIRNRPPRLPRPRPRPYMVPRP | -0.107
29 | RRIRTRPPRLPRPRPRPAIGPRP | 0.1
30 | RRIRFRPPRLPRPRPRPNTIPRP | -0.409
31 | RRIRPRPPRLPRPRPRPEMSPRP | 0.147
32 | RRIRVRPPRLPRPRPRPYVPPRP | -0.398
33 | RRIRWRPPRLPRPRPRPLYQPRP | -0.363
34 | RRIRYRPPRLPRPRPRPVAWPRP | 0.00214
35 | RRIRSRPPRLPRPRPRPLQFPRP | 0.0849
36 | RRIRNRPPRLPRPRPRPKIAPRP | 0.0241
37 | RRIRARPPRLPRPRPRPTFNPRP | 0.0685
38 | RRIRERPPRLPRPRPRPKGHPRP | 0.092
39 | RRIRDRPPRLPRPRPRPVTYPRP | -0.0305
40 | RRIRGRPPRLPRPRPRPHAAPRP | 1.47
41 | RRIRGRPPRLPRPRPRPSVSPRP | 0.166
42 | RRIRWRPPRLPRPRPRPSENPRP | -0.134
43 | RRIRPRPPRLPRPRPRPGWYPRP | 0.075
44 | RRIRIRPPRLPRPRPRPKWPPRP | 0.0341
45 | RRIRWRPPRLPRPRPRPYKIPRP | -0.286
46 | RRIRSRPPRLPRPRPRPEKGPRP | 0.0255
47 | RRIRWRPPRLPRPRPRPEAHPRP | 0.219
48 | RRIRLRPPRLPRPRPRPEAVPRP | -0.0408
49 | RRIRKRPPRLPRPRPRPFWAPRP | 0.659
50 | RRIRGRPPRLPRPRPRPGYMPRP | -0.0736

Row | Sequence | shrunken log2 fold change
51 | RRIRARPPRLPRPRPRPLFSPRP | -0.124
52 | RRIRARPPRLPRPRPRPHFCPRP | -0.105
53 | RRIRHRPPRLPRPRPRPHSYPRP | -0.191
54 | RRIRSRPPRLPRPRPRPVTPPRP | 0.0877
55 | RRIRTRPPRLPRPRPRPHQQPRP | -0.0314
56 | RRIRMRPPRLPRPRPRPGRFPRP | 0.0931
57 | RRIRSRPPRLPRPRPRPEDCPRP | 0.0867
58 | RRIRIRPPRLPRPRPRPSGLPRP | 0.0161
59 | RRIRFRPPRLPRPRPRPYIIPRP | -0.395
60 | RRIRIRPPRLPRPRPRPEMEPRP | -0.0895
61 | RRIRIRPPRLPRPRPRPNPGPRP | -0.209
62 | RRIRDRPPRLPRPRPRPELYPRP | 1.13
63 | RRIRHRPPRLPRPRPRPLVMPRP | -0.0133
64 | RRIRIRPPRLPRPRPRPMFFPRP | -0.534
65 | RRIRKRPPRLPRPRPRPLNPPRP | 0.129
66 | RRIRNRPPRLPRPRPRPGLSPRP | 0.486
67 | RRIRDRPPRLPRPRPRPYIDPRP | -0.0251
68 | RRIRMRPPRLPRPRPRPQHKPRP | -0.0523
69 | RRIRYRPPRLPRPRPRPRGQPRP | 0.0255
70 | RRIRERPPRLPRPRPRPKMSPRP | 0.148
71 | RRIRGRPPRLPRPRPRPAKQPRP | 0.199
72 | RRIRKRPPRLPRPRPRPLDWPRP | 0.474
73 | RRIRKRPPRLPRPRPRPHGQPRP | -0.0371
74 | RRIRYRPPRLPRPRPRPRMKPRP | -0.241
75 | RRIRLRPPRLPRPRPRPLICPRP | 0.128
